The values that follow come from patent publication US20210139581A1 (Alector, published 2021).

A word on the Kd: it is the concentration at which binding is half-saturated. Low values mean higher affinity, high ones lower affinity. Usually koff stands for a measure of how fast the partners let go of each other. Lower therefore signals slow dissociation. What is called kon is the rate constant with which the complex forms. Higher therefore signals fast association.

Assay [1] concerns the target human CD33 on primary human monocyte-derived dendritic cells (human, UniProt P20138 18-364). Description: cell-based or functional assay.
Another assay deals with T1, human CD33 (human, UniProt P20138 18-259, limits assumed).
T1 construct: Human CD33 immobilized on the BLI sensor tip or the BIAcore C1 chip; also called Siglec-3
The assay is described as follows: BLI (ForteBio), Fab 100 nM on immobilized CD33. On the procedure: The affinities (KD) of the humanized antibodies for human CD33 were measured for each antibody by BioLayer Interferometry in a ForteBio assay according to standard techniques (Estep et al. (2013) MAbs 5(2): 270-8). […] The assay was carried out at room temperature.
The affinities of AB-H14 and its affinity-matured variants (Table 15) and AB-H63 and its affinity-matured variants (Table 16), for human CD33 were measured by Fortebio assay according to the method described in Example 1 above.
A general note: In BLI a coated tip is dipped into the sample, and binding shifts an interference pattern.

Chain of human CD33 on primary human monocyte-derived dendritic cells (P20138 18-364): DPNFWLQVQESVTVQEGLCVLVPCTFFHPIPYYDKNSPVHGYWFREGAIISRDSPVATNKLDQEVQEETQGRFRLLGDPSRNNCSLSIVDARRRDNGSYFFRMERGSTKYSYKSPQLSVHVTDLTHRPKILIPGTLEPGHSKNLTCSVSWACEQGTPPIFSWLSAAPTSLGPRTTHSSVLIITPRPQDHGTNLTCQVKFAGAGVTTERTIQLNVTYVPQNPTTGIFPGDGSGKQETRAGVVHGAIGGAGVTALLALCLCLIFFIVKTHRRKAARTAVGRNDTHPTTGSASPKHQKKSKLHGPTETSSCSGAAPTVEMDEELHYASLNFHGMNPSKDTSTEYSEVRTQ
T1 sequence (P20138 18-259 limits assumed): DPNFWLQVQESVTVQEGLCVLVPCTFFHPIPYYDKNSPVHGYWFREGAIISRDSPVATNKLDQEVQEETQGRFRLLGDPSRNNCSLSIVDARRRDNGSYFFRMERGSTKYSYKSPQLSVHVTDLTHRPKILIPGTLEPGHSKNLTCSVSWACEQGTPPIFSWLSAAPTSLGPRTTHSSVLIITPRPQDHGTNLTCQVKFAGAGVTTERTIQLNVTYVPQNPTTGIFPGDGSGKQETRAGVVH

B1: AB-14.3 (antibody, V domains shown)
VH: QVQLVQSGAEVKKPGASVKVSCKASGYTFTDYNYHWVRQAPGQGLEWIGFIYPSNGITGSAQKFQGRVTMTVDTSTSTVYMELSSLRSEDTAVYYCARSDVDYFDYWGQGTLVTVSS
VL: DIQMTQSPSSLSASVGDRVTITCRASQDVSTSTYSYMHWYQQKPGKAPKLLIKYVSNLESGVPSRFSGSGSGTDFTLTISSLQPEDFATYYCQHSWEIPLTFGQGTKLEIK
With B1, in assay [1], the “Maximal Downregulation (% CD33 remaining)” value stood at 25.4% and the “Receptor downregulation (EC50)” value stood at 0.043 nM. For the same molecule, in the assay with human CD33, the “Fold affinity improvement over parental Ab (AB-H14)” value (“Fold affinity improvement” for short) came out at 12.3 fold, the Kd amounted to 0.236 nM, the koff was found to be 0.0002 s⁻¹ and the kon is 847000 M⁻¹ s⁻¹.

B2: AB-14.5 (antibody, V domains shown)
VH: QVQLVQSGAEVKKPGASVKVSCKASGYTFTDYNYHWVRQAPGQGLEWIGFIYPSNGITGYAQKFQGRVTMTVDTSTSTVYMELSSLRSEDTAVYYCARSDVDYFDYWGQGTLVTVSS
VL: DIQMTQSPSSLSASVGDRVTITCRASQDVSTSTYSYMHWYQRKPGKAPKLLIKYASNLESGVPSRFSGSGSGTDFTLTISSLQPEDFATYYCQHSWEIPLTFGQGTKLEIK
In the case of B2, in assay [1], the “Maximal Downregulation (% CD33 remaining)” value turned out to be 26.4% and the “Receptor downregulation (EC50)” value worked out at 0.0342 nM. For the same molecule, in the assay with human CD33, the “Fold affinity improvement” value is 13.7 fold, the Kd is 0.212 nM, the koff came out at 0.0002 s⁻¹ and the kon worked out at 945000 M⁻¹ s⁻¹.

B3: AB-14.4 (antibody, V domains shown)
VH: QVQLVQSGAEVKKPGASVKVSCKASGYTFTDYNYHWVRQAPGQGLEWIGFIYPSNGITGYAQKFQGRVTMTVDTSTSTVYMELSSLRSEDTAVYYCADSTVDYFDYWGQGTLVTVSS
VL: DIQMTQSPSSLSASVGDRVTITCRASQDVSTSTYSYMHWYQQKPGKAPKLLIKYVSNLESGVPSRFSGSGSGTDFTLTISSLQPEDFATYYCQHSWEIPLTFGQGTKLEIK
Regarding B3, in assay [1], the “Maximal Downregulation (% CD33 remaining)” value was determined as 27.6% and the “Receptor downregulation (EC50)” value came to 0.0582 nM. In addition, in the assay with human CD33, the “Fold affinity improvement” value turned out to be 13 fold, the Kd turned out to be 0.224 nM, the off-rate (koff) came to 0.0002 s⁻¹ and the kon was 895000 M⁻¹ s⁻¹.

B4: AB-14.6 (antibody, V domains shown)
VH: QVQLVQSGAEVKKPGASVKVSCKASGYTFTDYNYHWVRQAPGQGLEWIGFIYPSNGITGYAQKFQGRVTMTVDTSTSTVYMELSSLRSEDTAVYYCARSDVDYFDYWGQGTLVTVSS
VL: DIQMTQSPSSLSASVGDRVTITCRASQSVGTSTYSYMHWYQQKPGKAPKLLIKYASALESGVPSRFSGSGSGTDFTLTISSLQPEDFATYYCQHSWEIPLTFGQGTKLEIK
For B4, in assay [1], the “Maximal Downregulation (% CD33 remaining)” value was determined as 24% and the “Receptor downregulation (EC50)” value came to 0.0324 nM. Besides, in the assay with human CD33, the “Fold affinity improvement” value amounted to 9.83 fold, the Kd came to 0.295 nM, the koff came to 0.000264 s⁻¹ and the kon worked out at 894000 M⁻¹ s⁻¹.

B5: AB-14.7 (antibody, V domains shown)
VH: QVQLVQSGAEVKKPGASVKVSCKASGYTFTDYNYHWVRQAPGQGLEWIGFIYPSNGITGYAQKFQGRVTMTVDTSTSTVYMELSSLRSEDTAVYYCARSDVDYFDYWGQGTLVTVSS
VL: DIQMTQSPSSLSASVGDRVTITCRASQSVGTSTYSYMHWYQQKPGKAPKLLIKYASNLESGVPSRFSGSGSGTDFTLTISSLQPEDFATYYCQHSWEIPLTFGQGTKLEIK
In the case of B5, in assay [1], the “Maximal Downregulation (% CD33 remaining)” value was 23.4% and the “Receptor downregulation (EC50)” value worked out at 0.0351 nM. Moreover, in the assay with human CD33, the “Fold affinity improvement” value was 11.8 fold, the Kd amounted to 0.246 nM, the koff worked out at 0.0002 s⁻¹ and the kon was found to be 813000 M⁻¹ s⁻¹.
